From US20230183753A1 (INTELLIA THERAPEUTICS, published 2023)

Biological target: WT1 peptide … (VLD peptide) pulsed on OCI-AML3 target cells
Test: cell-based or functional assay

B1: WT1 targeting transgenic T cell receptor (tgTCR) (TCR, V domains shown)
V domain 1: DAGVIQSPRHEVTEMGQEVTLRCKPISGHDYLFWYRQTMMRGLELLIYFNNNVPIDDSGMPEDRFSAKMPNASFSTLKIQPSEPRDSAVYFCASRKTGGYSNQPQHFGDGTRLSILE
V domain 2: SQQPVQSPQAVILREGEDAVINCSSSKALYSVHWYRQKHGEAPVFLMILLKGGEQKGHEKISASFNEKKQQSSLYLTASQLSYSGTYFCGTAWINDYKLSFGAGTTVTVRA
B1 was tested, and the “Cumulative Fold Change in T cell number after stimulation 1 with OCI-AML3 cells pulsed with 500 nM VLD peptide, EP + AAV engineered T cells” value was 7.9 fold, the “Cumulative Fold Change in T cell number after stimulation 1 with OCI-AML3 cells pulsed with 500 nM VLD peptide, LNP + AAV engineered T cells” value was 7.2 fold and the “Cumulative Fold Change in T cell number after stimulation 2 with OCI-AML3 cells pulsed with 500 nM VLD peptide, EP + AAV engineered T cells” value was 19 fold. For the same binder, the “Cumulative Fold Change in T cell number after stimulation 2 with OCI-AML3 cells pulsed with 500 nM VLD peptide, LNP + AAV engineered T cells” value was 34.2 fold, the “Cumulative Fold Change in T cell number after stimulation 3 with OCI-AML3 cells pulsed with 500 nM VLD peptide, EP + AAV engineered T cells” value was 27.1 fold and the “Cumulative Fold Change in T cell number after stimulation 3 with OCI-AML3 cells pulsed with 500 nM VLD peptide, LNP + AAV engineered T cells” value was 120 fold.
